How the values were obtained:
HLA-B*07:02 [1] = test: IEDB peptide-MHC binding, purified MHC/competitive/fluorescence; ≥ and ≤ were set here for values at or beyond the usual limits of such assays; settings: source organism: Zaire ebolavirus
HLA-A*02:11 = test: IEDB peptide-MHC binding, purified MHC/direct/fluorescence; filed as Kd, often an IC50 or EC50 that approximates it; ≥ and ≤ were set here for values at or beyond the usual limits of such assays; settings: source organism: Francisella tularensis subsp. tularensis FSC033
HLA-C*08:02 = test: as above
HLA-C*12:03 = test: as above; settings: source organism: Francisella tularensis subsp. tularensis WY96-3418
HLA-A*02:01 [2] = test: as above
HLA-A*02:19 = test: as above; settings: source organism: Francisella tularensis subsp. tularensis FSC033
HLA-A*02:12 = test: as above; settings: source organism: Francisella tularensis subsp. tularensis FSC033
HLA-B*57:01 = test: as above
HLA-B*46:01 = test: as above
HLA-B*18:01 = test: as above; settings: source organism: Mycobacterium tuberculosis
HLA-B*08:03 = test: as above; settings: source organism: Mycobacterium tuberculosis str. Haarlem
HLA-A*68:02 = test: as above
HLA-B*48:01 = test: as above
HLA-A*01:01 = test: as above
HLA-B*40:01 = test: as above; settings: source organism: Mycobacterium tuberculosis
HLA-A*26:03 = test: as above; settings: source organism: Mycobacterium tuberculosis str. Haarlem
HLA-B*08:01 = test: as above
HLA-A*26:01 = test: as above; settings: source organism: Mycobacterium tuberculosis str. Haarlem
HLA-B*27:05 = test: as above
HLA-B*07:02 [3] = test: as above
HLA-B*08:02 = test: as above
HLA-B*58:01 [4] = test: as above
HLA-A*26:02 [5] = test: as above
HLA-B*15:01 [6] = test: as above
HLA-A*31:01 = test: as above
HLA-B*15:17 [7] = test: as above
HLA-A*11:01 [8] = test: as above
HLA-A*69:01 = test: as above
HLA-B*15:02 = test: as above
HLA-B*15:09 = test: as above
HLA-A*03:01 = test: as above; settings: source organism: Brucella abortus
HLA-A*02:01 [9] = test: IEDB peptide-MHC binding, purified MHC/competitive/fluorescence; filed as Kd, often an IC50 or EC50 that approximates it; ≥ and ≤ were set here for values at or beyond the usual limits of such assays; settings: source organism: Yersinia pestis Nepal516
HLA-B*58:01 [10] = test: as above; settings: source organism: Yersinia pestis Nepal516
HLA-B*39:01 = test: as above; settings: source organism: Yersinia pestis Nepal516
HLA-B*51:01 = test: as above; settings: source organism: Yersinia pestis Nepal516
HLA-B*15:01 [11] = test: as above; settings: source organism: Yersinia pestis Nepal516
HLA-C*05:01 = test: IEDB peptide-MHC binding, purified MHC/direct/fluorescence; filed as Kd, often an IC50 or EC50 that approximates it; ≥ and ≤ were set here for values at or beyond the usual limits of such assays
HLA-C*03:03 = test: as above; settings: source organism: Mycobacterium tuberculosis C
HLA-A*02:01 [12] = test: IEDB peptide-MHC binding, purified MHC/competitive/fluorescence; ≥ and ≤ were set here for values at or beyond the usual limits of such assays; settings: source organism: Zaire ebolavirus
HLA-B*15:01 [13] = test: as above; settings: source organism: Zaire ebolavirus
HLA-A*11:01 [14] = test: as above; settings: source organism: Zaire ebolavirus
HLA-A*24:02 = test: as above; settings: source organism: Zaire ebolavirus
HLA-A*02:03 = test: IEDB peptide-MHC binding, purified MHC/competitive/fluorescence; filed as Kd, often an IC50 or EC50 that approximates it; ≥ and ≤ were set here for values at or beyond the usual limits of such assays; settings: source organism: Francisella tularensis subsp. tularensis FSC198
HLA-A*30:01 = test: as above; settings: source organism: Francisella tularensis subsp. tularensis FSC198
HLA-B*35:01 = test: as above; settings: source organism: Francisella tularensis subsp. tularensis FSC198
HLA-A*26:02 [15] = test: as above; settings: source organism: Francisella tularensis subsp. tularensis FSC198
HLA-B*15:17 [16] = test: as above; settings: source organism: Francisella tularensis subsp. tularensis FSC198
[17] = source organism: Francisella tularensis subsp. holarctica LVS
[18] = source organism: Mycobacterium tuberculosis
[19] = source organism: Mycobacterium tuberculosis str. Haarlem
[20] = source organism: Brucella abortus
[21] = source organism: Brucella suis 1330
[22] = source organism: Yersinia pestis Nepal516
[23] = source organism: Mycobacterium tuberculosis C
[24] = source organism: Francisella tularensis subsp. tularensis FSC033

SPQNHSETA
IC50 (HLA-B*07:02 [1]): 45.2 µM

YLYPWSLGL
Kd (HLA-A*02:11): ≤ 0.001 µM | Kd (HLA-C*08:02; source organism: Francisella tularensis subsp. tularensis WY96-3418): ≥ 20 µM | Kd (HLA-C*12:03): 0.004 µM | Kd (HLA-A*02:01 [2]; [17]): ≤ 0.001 µM | Kd (HLA-A*02:19): 0.012 µM | Kd (HLA-A*02:12): 0.002 µM

KYFVRSTEK
Kd (HLA-B*57:01; [18]): ≥ 20 µM | Kd (HLA-B*46:01; [18]): ≥ 20 µM | Kd (HLA-B*18:01): ≥ 20 µM | Kd (HLA-B*08:03): ≥ 20 µM | Kd (HLA-A*02:01 [2]; [18]): ≥ 20 µM | Kd (HLA-A*68:02; [18]): ≥ 20 µM | Kd (HLA-B*48:01; [18]): ≥ 20 µM | Kd (HLA-A*01:01; [18]): ≥ 20 µM | Kd (HLA-B*40:01): ≥ 20 µM | Kd (HLA-A*26:03): ≥ 20 µM | Kd (HLA-B*08:01; [19]): ≥ 20 µM | Kd (HLA-A*26:01): ≥ 20 µM | Kd (HLA-B*27:05; [18]): ≥ 20 µM | Kd (HLA-B*07:02 [3]; [18]): ≥ 20 µM | Kd (HLA-B*08:02; [19]): ≥ 20 µM | Kd (HLA-B*58:01 [4]; [18]): ≥ 20 µM | Kd (HLA-A*26:02 [5]; [19]): ≥ 20 µM | Kd (HLA-B*15:01 [6]; [18]): ≥ 20 µM | Kd (HLA-A*31:01; [18]): 0.0021 µM | Kd (HLA-B*15:17 [7]; [18]): ≥ 20 µM | Kd (HLA-A*11:01 [8]; [18]): 1.79 µM

GLAEKPNDY
Kd (HLA-B*57:01; [20]): ≥ 20 µM | Kd (HLA-B*46:01; [20]): ≥ 20 µM | Kd (HLA-A*02:01 [2]; [20]): ≥ 20 µM | Kd (HLA-A*69:01; [20]): ≥ 20 µM | Kd (HLA-B*15:02; [20]): 2 µM | Kd (HLA-A*68:02; [20]): ≥ 20 µM | Kd (HLA-B*48:01; [20]): ≥ 20 µM | Kd (HLA-A*01:01; [20]): ≥ 20 µM | Kd (HLA-B*27:05; [20]): ≥ 20 µM | Kd (HLA-B*07:02 [3]; [20]): ≥ 20 µM | Kd (HLA-B*15:09; [21]): ≥ 20 µM | Kd (HLA-B*08:02; [21]): ≥ 20 µM | Kd (HLA-A*03:01): ≥ 20 µM | Kd (HLA-B*58:01 [4]; [20]): ≥ 20 µM | Kd (HLA-A*26:02 [5]; [21]): ≥ 20 µM | Kd (HLA-B*15:01 [6]; [20]): 0.947 µM | Kd (HLA-A*31:01; [20]): ≥ 20 µM | Kd (HLA-B*15:17 [7]; [20]): ≥ 20 µM | Kd (HLA-A*11:01 [8]; [20]): ≥ 20 µM

FSYNVAYAI
Kd (HLA-A*02:01 [9]): 0.0296 µM | Kd (HLA-B*58:01 [10]): 0.0363 µM | Kd (HLA-B*39:01): 0.469 µM | Kd (HLA-B*51:01): 2.27 µM | Kd (HLA-B*15:01 [11]): ≥ 20 µM | Kd (HLA-C*08:02; [22]): 0.182 µM | Kd (HLA-C*05:01; [22]): 4.96 µM

YLDAIQQPV
Kd (HLA-C*08:02; [23]): ≤ 0.001 µM | Kd (HLA-C*03:03): 0.256 µM | Kd (HLA-C*05:01; [23]): 0.025 µM

RTNFLIKFL
IC50 (HLA-A*02:01 [12]): ≥ 165 µM | IC50 (HLA-B*07:02 [1]): ≥ 275 µM | IC50 (HLA-B*15:01 [13]): ≥ 725 µM | IC50 (HLA-A*11:01 [14]): ≥ 589 µM | IC50 (HLA-A*24:02): 10.2 µM

FQVNRFTGY
Kd (HLA-A*02:03): ≥ 20 µM | Kd (HLA-A*30:01): ≥ 20 µM | Kd (HLA-B*35:01): 4.41 µM | Kd (HLA-A*26:02 [15]): 0.113 µM | Kd (HLA-B*15:17 [16]): ≥ 20 µM | Kd (HLA-B*57:01; [17]): ≥ 20 µM | Kd (HLA-B*46:01; [17]): ≥ 20 µM | Kd (HLA-A*02:01 [2]; [17]): ≥ 20 µM | Kd (HLA-A*69:01; [17]): ≥ 20 µM | Kd (HLA-B*15:02; [24]): 0.008 µM | Kd (HLA-A*68:02; [17]): ≥ 20 µM | Kd (HLA-B*48:01; [17]): ≥ 20 µM | Kd (HLA-A*01:01; [17]): ≥ 20 µM | Kd (HLA-B*08:01; [24]): ≥ 20 µM | Kd (HLA-B*27:05; [17]): 0.632 µM | Kd (HLA-B*07:02 [3]; [17]): ≥ 20 µM | Kd (HLA-B*15:09; [24]): ≥ 20 µM | Kd (HLA-B*58:01 [4]; [17]): ≥ 20 µM | Kd (HLA-B*15:01 [6]; [17]): 0.0097 µM | Kd (HLA-A*31:01; [17]): ≥ 20 µM | Kd (HLA-A*11:01 [8]; [17]): ≥ 20 µM
